B1: Guanyl-specific ribonuclease Sa, P05798 (parent)
chain: DVSGTVCLSALPPEATDTLNLIASDGPFPYSQDGVVFQNRESVLPTQSYGYYHEYTVITPGARTRGTRRIITGEATQEDYYTGDHYATFSLIDQTC

Variants of: B1
Conditions: Kitasatospora aureofaciens, Thermal, structure 1RGG, whole UniProt chain shown
[1] = pH 3, 38.6 °C, CD, Glycine 30 mM
[2] = pH 8.5, 45.9 °C, CD, Mops 30 mM

Variant | ddG of mutation (higher = less stable) [1] [kcal/mol] | heat capacity change of unfolding [1] [kcal/mol/K] | Tm (pH 3, CD, Glycine 30 mM) [°C] | change of melting temperature, mutant - wild type (higher = more stable) (pH 3, CD, Glycine 30 mM) [°C] | unfolding enthalpy (van 't Hoff) (pH 3, CD, Glycine 30 mM) [kcal/mol] | ddG of mutation (higher = less stable) (pH 7, 52.6 °C, CD, Mops 30 mM) [kcal/mol] | heat capacity change of unfolding (pH 7, 52.6 °C, CD, Mops 30 mM) [kcal/mol/K] | ddG of mutation (higher = less stable) (pH 7, 52.6 °C, DSC, Mops 30 mM) [kcal/mol] | heat capacity change of unfolding (pH 7, 52.6 °C, DSC, Mops 30 mM) [kcal/mol/K] | Tm (pH 7, CD, Mops 30 mM) [°C] | change of melting temperature, mutant - wild type (higher = more stable) (pH 7, CD, Mops 30 mM) [°C] | unfolding enthalpy (van 't Hoff) (pH 7, CD, Mops 30 mM) [kcal/mol] | Tm (pH 8.5, CD, Mops 30 mM) [°C] | change of melting temperature, mutant - wild type (higher = more stable) (pH 8.5, CD, Mops 30 mM) [°C] | unfolding enthalpy (van 't Hoff) (pH 8.5, CD, Mops 30 mM) [kcal/mol] | ddG of mutation (higher = less stable) [2] [kcal/mol] | heat capacity change of unfolding [2] [kcal/mol/K]
DVSGTVCLSALPPEATDTLNLIASDGPFPYSQDGVVFQNRESVLPTQSYGYYHEYTVITPGARTRGTRRIITGEATQEAYYTGDHYATFSLIDQTC | 0.3 | 1.52 | 38.6 | -1.3 | 75 | -2.8 | 1.52 | -2.7 | 1.52 | 57 | 9.2 | 94 | 50.4 | 11.7 | 95 |  | 
DVSGTVCLSALPPEATDTLNLIASDGPFPYSQDGVVFQNRESVLPTQSYGYYHEYTVITPGARTRGTRRIITGEATQENYYTGDHYATFSLIDQTC | 1.2 | 1.52 | 35.1 | -4.8 | 69 | -1.8 | 1.52 | -1.8 | 1.52 | 53.4 | 5.5 | 96 | 46.3 | 7.6 | 65 | -2.3 | 1.52
DVSGTVCLSALPPEATDTLNLIASDGPFPYSQDGVVFQNRESVLPTQSYGYYHEYTVITPGARTRGTRRIITGEATQEFYYTGDHYATFSLIDQTC | 0.3 | 1.52 | 38.5 | -1.4 | 67 |  |  | -3 | 1.52 | 57.8 | 10 | 89 | 51.8 | 13.1 | 82 | -3.7 | 1.52
DVSGTVCLSALPPEATDTLNLIASDGPFPYSQAGVVFQNRESVLPTQSYGYYHEYTVITPGARTRGTRRIITGEATQEDYYTGDHYATFSLIDQTC |  |  |  |  |  | 6.2 | 1.52 | 6 | 1.52 | 31.8 | -16 | 57 |  |  |  |  | 
DVSGTVCLSALPPEATDTLNLIASDGPFPYSQDGVVFQNRESVLPTQSYGYYHEYTVITPGARTRGTRRIITGEATQEDYYTGDHYATFSLIDKTC | -0.2 | 1.52 | 40.8 | 0.9 | 64 | -0.3 | 1.52 |  |  | 48.6 | 0.8 | 96 |  |  |  | -1.1 | 1.52

From FireProtDB (doi:10.1016/j.jmb.2005.09.091)
